The target in assay [1] is T1, mouse ephrin-A4 homolog (recombinantly expressed, monomeric) (mouse, UniProt O08542 26-175).
T1 chain: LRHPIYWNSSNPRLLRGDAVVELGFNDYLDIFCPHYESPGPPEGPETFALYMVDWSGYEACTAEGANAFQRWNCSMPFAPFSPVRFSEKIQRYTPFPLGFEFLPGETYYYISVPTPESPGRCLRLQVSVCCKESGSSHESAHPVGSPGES
The assay can be described thus: label-free interaction analysis.

Assay [2] deals with T2, human ephrin-A4-His (UniProt P52798 26-170).
T2 chain: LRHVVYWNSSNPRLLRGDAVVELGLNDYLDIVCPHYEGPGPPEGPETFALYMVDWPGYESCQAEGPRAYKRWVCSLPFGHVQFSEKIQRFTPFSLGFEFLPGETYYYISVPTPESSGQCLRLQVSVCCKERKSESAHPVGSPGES
Kind of assay: label-free interaction analysis.

For assay [3], the target named is T2, human ephrin-A4-His. Kind of assay: Biacore. (In general: In SPR one partner is held on a chip, and binding of the other changes the refractive index at the surface.)
The target of assay [4] is T2, human ephrin-A4-His. Kind of assay: ForteBIO. (In general: In BLI a coated tip is dipped into the sample, and binding shifts an interference pattern.)
Assay [5] addresses T3, hEFNA4-Fc (human, UniProt P01857 100-330 = IgG part). The assay can be described thus: cell surface binding inhibition (flow cytometry); 0.1 ug/ml hEphrinA4-Fc. A general note: In flow cytometry, cells or beads pass a laser one at a time.
Assay [6] has as its target T4, mEFNA4-Fc (mouse;human, UniProt O08542 26-176; P01857 100-330 = IgG part). Kind of assay: cell surface binding inhibition (flow cytometry); 0.1 ug/ml mEphrinA4-Fc.
Assay [7] concerns the target T4, mEFNA4-Fc. The assay can be described thus: cell surface binding inhibition (flow cytometry); 1.0 ug/ml mEphrinA4-Fc.
Assay [8] concerns the target T3, hEFNA4-Fc. Kind of assay: cell surface binding inhibition (flow cytometry); 1.0 ug/ml hEphrinA4-Fc.

The values below come from patent US20160264653A1 (published 2016).

B1: hSC4.47 (antibody, V domains shown)
VH: QVQLVQSGAEVKKPGASVKVSCKASGYTFTYFYMNWVRQAPGQGLEWVGQINPNNGGTAYAQKFQGRVTMTRDTSTSTVYMELSSLRSEDTAVYYCARWVGTHYFDYWGQGTTLTVSS
VL: EIVLTQSPATLSLSPGERATLSCRASQSVSSSSYTYIHWYQQKPGQAPRLLINFASNLESGIPARFSGSGSGTDFTLTISSLEPEDFAVYYCQHSWEIPPTFGGGTKLEIK
Usually Kd stands for a measure of binding affinity in units of concentration. With B1, the Kd in assay [1] is more than 100 nM.

B2: hSC4.15 (antibody, V domains shown)
VH: EVQLVESGGGLVKPGGSLRLSCAASGFTFSTYGMSWVRQAPGKGLEWVATISSGGTYTYYPDSVKGRFKISRDNAKNSLYLQMNSLRAEDTAVYYCTRHDPNDGYYFLFAYWGQGTLVTVSS
VL: EIVLTQSPGTLSLSPGERATLSCKASQSVGNNVAWYQQKPGQAPRLLIYYASNRYTGIPDRFSGSGSGTDFTLTISRLEPEDFAVYYCQQHYSSPLTFGAGTKLEIK
For the molecule B2, the Kd amounted to 3.4 nM in assay [1] and 4.8 nM in assay [2].

B3: hSC4.22 (antibody, V domains shown)
VH: QVQLVQSGAEVKKPGASVKVSCKASGYTFTGYYIHWVRQAPGQGLEWMGWIYPGNFNTKYNERFKGRVTMTTDTSTSTAYMELRSLRSDDTAVYYCAREDGSPYYAMDYWGQGTSVTVSS
VL: DIVMTQTPLSLSVTPGQPASISCRSSQSLVHSNGNTFLYWYLQKPGQSPQLLIYRVSNRFSGVPDRFSGSGSGTDFTLKISRVEAEDVGVYYCFQATHVPWTFGGGTKVEIK
As to B3, the Kd in assay [1] is more than 100 nM; in assay [2], 3.8 nM.

B4: SC4.22 (antibody, V domains shown)
VH: QIQLQQSGPELVKPGASVKISCKASGYTFTGYYIHWVKQRPGQGLEWIGWIYPGNFNTKYNERFKGMATLTVDTSSSTAYMQLSSLTSEDSAVYLCAREDGSPYYAMDYWGQGTSVTVSS
VL: DVVMTQTPLSLPVSLGDQASISCRSSQSLVHSNGNTFLYWYLQKPGQSPKLLIYRVSNRFSGVPDRFSGSGSGTDFTLKISRVEAEDLGVYFCFQATHVPWTFGGGTKLEIK
In assay [3], B4 returned a Kd of 3.1 nM.

B5: SC4.22 (Murine mAb) (antibody, V domains shown)
VH: QIQLQQSGPELVKPGASVKISCKASGYTFTGYYIHWVKQRPGQGLEWIGWIYPGNFNTKYNERFKGMATLTVDTSSSTAYMQLSSLTSEDSAVYLCAREDGSPYYAMDYWGQGTSVTVSS
VL: DVVMTQTPLSLPVSLGDQASISCRSSQSLVHSNGNTFLYWYLQKPGQSPKLLIYRVSNRFSGVPDRFSGSGSGTDFTLKISRVEAEDLGVYFCFQATHVPWTFGGGTKLEIK
Molecule B5 gave a Kd in assay [2] of 3.1 nM.

B6: SC4.2 (antibody, V domains shown)
VH: QVQLQQSGAELVRPGTSVTLSCKASGYTFTDYEMHWVKQTPVLGLEWIGAFDPETGNTVYNQKFKGKATLTADKSPNTAYMELISLTSEDSAVYYCARGYPAWFGYWGQGTLVTVSA
VL: DVVMTQIPLSLPVTLGDQASISCRSSQSLAHTNGNTYLHWYLQKPGQSPKLLIYKVSNRFSGVPDRFSGSGSGTDFTLKISRVEAEDLGVYFCSQDTHVPPTFGGGTKLEMK
Regarding B6, the Kd in assay [4] came out at 20 nM.

B7: E15.3 Ab (antibody, V domains shown)
VH: EVQVVESGGDLVKPGGSLKLSCAASGFTFSTYGMSWVRQTPDKRLEWVATISSGGTYTYYPDSVKGRFKISRDNAKDTLYLQMSSLKSEDTAMYYCTRHDPNDGYYFLFAYWGQGTLVIVSA
VL: SIGRTQIPKFLPVSAGDRVTMTCKASQSVGNNVAWYQQKAGQSPKLLIYYASNRYTGVPDRFTGSGSGTDFTFTISSVQVEDLAVYFCQQHYSSPLTFGAGTKLELK
One may read the IC50 as the point on the concentration scale where inhibition reaches its midpoint. On to B7, for which the IC50 stood at 1.14 µg/mL in assay [5], 2.09 µg/mL in assay [6], 16.7 µg/mL in assay [7] and 20.1 µg/mL in assay [8].

B8: SC4.15 (Murine mAb) (antibody, V domains shown)
VH: EVQVVESGGDLVKPGGSLKLSCAASGFTFSTYGMSWVRQTPDKRLEWVATISSGGTYTYYPDSVKGRFKISRDNAKDTLYLQMSSLKSEDTAMYYCTRHDPNDGYYFLFAYWGQGTLVIVSA
VL: SIGRTQIPKFLPVSAGDRVTMTCKASQSVGNNVAWYQQKAGQSPKLLIYYASNRYTGVPDRFTGSGSGTDFTFTISSVQVEDLAVYFCQQHYSSPLTFGAGTKLELK
For B8, binding in assay [2] was characterised by a dissociation constant (Kd) of 2.7 nM.

B9: SC4.15 (antibody, V domains shown)
VH: EVQVVESGGDLVKPGGSLKLSCAASGFTFSTYGMSWVRQTPDKRLEWVATISSGGTYTYYPDSVKGRFKISRDNAKDTLYLQMSSLKSEDTAMYYCTRHDPNDGYYFLFAYWGQGTLVIVSA
VL: SIGRTQIPKFLPVSAGDRVTMTCKASQSVGNNVAWYQQKAGQSPKLLIYYASNRYTGVPDRFTGSGSGTDFTFTISSVQVEDLAVYFCQQHYSSPLTFGAGTKLELK
In assay [3], B9 displayed a Kd of 4.8 nM.

B10: SC4.5 (antibody, V domains shown)
VH: QVQLKQSGPGLVAPSQSLSITCTVSGFSLTTYGVDWVRQSPGKGLEWLGVIWGGGSTNYNSALKSRLSISKDNSKSQVFLKMNSLQTDDTAMYYCASDWAYWGQGTLVTVSA
VL: DIVMTQSQKFMSTSVGDRVTVTCKASQNVGTNVAWFQQKSGQSPKPLIHSASYRYSGVPDRFTGSGSGTDFTLTITNVQSEDLVAYFCQQYKRYPYTFGGGTKLEIKR
Regarding B10, the Kd in assay [3] turned out to be 0.3 nM.

B11: SC4.31 (antibody, V domains shown)
VH: QVQLQQPGAELVRPGASVKLSCKASGYTFTRDWMHWIKQRPGQGLDWIGTIHPYDSETHYNQNFKDKATLTVDKSSSTAYMQLSSLTSEDSAVYYCVTFIKTMVDTYYYAMDYWGQGTSVTVSS
VL: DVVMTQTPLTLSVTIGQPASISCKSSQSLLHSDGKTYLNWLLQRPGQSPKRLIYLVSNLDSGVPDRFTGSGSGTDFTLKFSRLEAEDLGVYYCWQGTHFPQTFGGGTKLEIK
Regarding B11, in assay [3], binding was characterised by a dissociation constant (Kd) of 11 nM.

B12: E47.3 Ab (antibody, V domains shown)
VH: EVQLQQSGPELVKPGASVKISCTASGYTFTYFYMNWVKQSQGKSLEWVGQINPNNGGTAYNHKFRGKTTLTVDKSSNTAFMELRSLTSEDSAVYFCARWVGTHYFDYWGQGTTLTVSS
VL: DIVLTQSPASLPVSLGQRATISCRASQSVSSSSYTYIHWYQQKPGQPPKLLINFASNLESGVPARFSVSGSGTDFTLNIHPVEGEDTATYYCQHSWEIPPTFGGGTKLEIK
For B12, the IC50 in assay [5] was approximately 0.124 µg/mL; in assay [6], approximately 0.0183 µg/mL; in assay [7], approximately 0.0217 µg/mL; in assay [8], 1.54 µg/mL.
